# Results reported in patent publication US20260049138A1 (Chugai, published 2026).
# Substitutions are numbered along the chain they refer to. In names and notes the source's numbering stands.
# T1: human CD154 (human, UniProt P29965 113-261, limits assumed, biotin-labeled)
# T1 construct: also called biotin-labeled human CD154; biotinylated human CD154
# T1 sequence (looked up): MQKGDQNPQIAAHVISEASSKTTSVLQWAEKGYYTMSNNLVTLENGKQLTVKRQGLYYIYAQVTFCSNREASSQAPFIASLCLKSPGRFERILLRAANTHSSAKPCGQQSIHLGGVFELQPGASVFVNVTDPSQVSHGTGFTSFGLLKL
# B1: 154R4B07#1 one-arm antibody (antibody, human IgG1, kappa, L234A L235A, N297A)
# heavy: QVQLVESGGGLVQPGRSLRLSCAASGFTFSNAWMHWVRQAPGKGLEWVAQIKDRGNNYAAYYAESVKGRFTISRDDSKNSIYLQMNSLKTEDTAVYYCRYVHYGSYFFASFYFGVDIWGQGTTVTVSSASTKGPSVFPLAPSSKSTSGGTAALGCLVKDYFPEPVTVSWNSGALTSGVHTFPAVLQSSGLYSLSSVVTVPSSSLGTQTYICNVNHKPSNTKVDKKVEPKSCDKTHTCPPCPAPEAAGGPSVFLFPPKPKDTLMISRTPEVTCVVVDVSHEDPEVKFNWYVDGVEVHNAKTKPREEQYASTYRVVSVLTVLHQDWLNGKEYKCKVSNKALPAPIEKTISKAKGQPREPQVYTLPPSRCELTKNQVSLSCAVKGFYPSDIAVEWESNGQPENNYKTTPPVLDSDGSFFLVSKLTVDKSRWQQGNVFSCSVMHEALHNHYTQKSLSLSPDYKDDDDK
# chain: EPKSSDKTHTCPPCPAPELLGGPSVFLFPPKPKDTLMISRTPEVTCVVVDVSHEDPEVKFNWYVDGVEVHNAKTKPREEQYNSTYRVVSVLTVLHQDWLNGKEYKCKVSNKALPAPIEKTISKAKGQPREPQVCTLPPSRDELTKNQVSLWCLVKGFYPSDIAVEWESNGQPENNYKTTPPVLDSDGSFFLYSKLTVDKSRWQQGNVFSCSVMHEALHNRYTQKSLSLSP
# light: DIVMTQSPLSLPVTPGEPASISCRSSQSLVHSNRNTYLHWYQQKPGQAPRLLIYKVSNRFSGVPDRFSGSGSGTDFTLKISRVEAEDVGVYYCGQGTQVPYTFGQGTKLEIKRTVAAPSVFIFPPSDEQLKSGTASVVCLLNNFYPREAKVQWKVDNALQSGNSQESVTEQDSKDSTYSLSSTLTLSKADYEKHKVYACEVTHQGLSSPVTKSFNRGEC
# notes: As m48
# B2: 154R3A01#2 one-arm antibody (antibody, human IgG1, kappa, L234A L235A, N297A)
# heavy: QVQLVESGGGLVQPGRSLRLSCAASGFTFSNAWMHWVRQAPGKGLEWVAQIKDRVNQYANYYAESVKGRLTISRDDSKNSIYLQMNSLKTEDTAVYYCRYVHYGLTGYFSGQGGVDAWGQGTTVTVSSASTKGPSVFPLAPSSKSTSGGTAALGCLVKDYFPEPVTVSWNSGALTSGVHTFPAVLQSSGLYSLSSVVTVPSSSLGTQTYICNVNHKPSNTKVDKKVEPKSCDKTHTCPPCPAPEAAGGPSVFLFPPKPKDTLMISRTPEVTCVVVDVSHEDPEVKFNWYVDGVEVHNAKTKPREEQYASTYRVVSVLTVLHQDWLNGKEYKCKVSNKALPAPIEKTISKAKGQPREPQVYTLPPSRCELTKNQVSLSCAVKGFYPSDIAVEWESNGQPENNYKTTPPVLDSDGSFFLVSKLTVDKSRWQQGNVFSCSVMHEALHNHYTQKSLSLSPDYKDDDDK
# chain: B1 chain
# light: B1 light
# notes: As m48
# B3: 154R3B01#1 one-arm antibody (antibody, human IgG1, kappa, L234A L235A, N297A)
# heavy: QVQLVESGGGLVQPGRSLRLSCAASGFTFSSAWMHWVRQAPGKGLEWVAQIKDKQNQYNAYYAESVKGRFTISRDDSKNSIYLQMNSLKTEDTAVYYCRYVHYATSDGFLPYFGVDAWGQGTTVTVSSASTKGPSVFPLAPSSKSTSGGTAALGCLVKDYFPEPVTVSWNSGALTSGVHTFPAVLQSSGLYSLSSVVTVPSSSLGTQTYICNVNHKPSNTKVDKKVEPKSCDKTHTCPPCPAPEAAGGPSVFLFPPKPKDTLMISRTPEVTCVVVDVSHEDPEVKFNWYVDGVEVHNAKTKPREEQYASTYRVVSVLTVLHQDWLNGKEYKCKVSNKALPAPIEKTISKAKGQPREPQVYTLPPSRCELTKNQVSLSCAVKGFYPSDIAVEWESNGQPENNYKTTPPVLDSDGSFFLVSKLTVDKSRWQQGNVFSCSVMHEALHNHYTQKSLSLSPDYKDDDDK
# chain: B1 chain
# light: B1 light
# notes: As m48
# B4: 154R4B03#4 one-arm antibody (antibody, human IgG1, kappa, L234A L235A, N297A)
# heavy: QVQLVESGGGLVQPGRSLRLSCAASGFTFSNAWMHWVRQAPGKGLEWVAQIKDKQSQYANYYAPSVKGRFTISRDDSKSSIYLQMNSLKTEDTAVYYCRYVHYQSTSYSFYQGGVDAWGQGTTVTVSSASTKGPSVFPLAPSSKSTSGGTAALGCLVKDYFPEPVTVSWNSGALTSGVHTFPAVLQSSGLYSLSSVVTVPSSSLGTQTYICNVNHKPSNTKVDKKVEPKSCDKTHTCPPCPAPEAAGGPSVFLFPPKPKDTLMISRTPEVTCVVVDVSHEDPEVKFNWYVDGVEVHNAKTKPREEQYASTYRVVSVLTVLHQDWLNGKEYKCKVSNKALPAPIEKTISKAKGQPREPQVYTLPPSRCELTKNQVSLSCAVKGFYPSDIAVEWESNGQPENNYKTTPPVLDSDGSFFLVSKLTVDKSRWQQGNVFSCSVMHEALHNHYTQKSLSLSPDYKDDDDK
# chain: B1 chain
# light: B1 light
# notes: As m48
# B5: 154R3A01#4 one-arm antibody (antibody, human IgG1, kappa, L234A L235A, N297A)
# heavy: B2 heavy with S65C, L70F
# chain: B1 chain
# light: B1 light
# notes: As m48
# B6: 154R3A01#3 one-arm antibody (antibody, human IgG1, kappa, L234A L235A, N297A)
# heavy: B2 heavy with T28A, L70F
# chain: B1 chain
# light: B1 light
# notes: As m48
# B7: 154R3F02#2 one-arm antibody (antibody, human IgG1, kappa, L234A L235A, N297A)
# heavy: QVQLVESGGGLVQPGRSLRLSCAASGFTFSNAWMHWVRQAPGKGLEWVAQIKDRASGYNNYYAESVKGRFTISRDDSKNSIYLQMNSLKTEDTAVYYCRYVHYAQSVSAFFQYGVDAWGQGTTVTVSSASTKGPSVFPLAPSSKSTSGGTAALGCLVKDYFPEPVTVSWNSGALTSGVHTFPAVLQSSGLYSLSSVVTVPSSSLGTQTYICNVNHKPSNTKVDKKVEPKSCDKTHTCPPCPAPEAAGGPSVFLFPPKPKDTLMISRTPEVTCVVVDVSHEDPEVKFNWYVDGVEVHNAKTKPREEQYASTYRVVSVLTVLHQDWLNGKEYKCKVSNKALPAPIEKTISKAKGQPREPQVYTLPPSRCELTKNQVSLSCAVKGFYPSDIAVEWESNGQPENNYKTTPPVLDSDGSFFLVSKLTVDKSRWQQGNVFSCSVMHEALHNHYTQKSLSLSPDYKDDDDK
# chain: B1 chain
# light: B1 light
# notes: As m48
# B8: 154R4B03#1 one-arm antibody (antibody, human IgG1, kappa, L234A L235A, N297A)
# heavy: B4 heavy with S79N
# chain: B1 chain
# light: B1 light
# notes: As m48
# B9: CE115HA000 D101R one-arm antibody (antibody, human IgG1, kappa, L234A L235A, N297A, name in Kabat numbering)
# heavy: QVQLVESGGGVVQPGRSLRLSCAASGFTFSNAWMHWVRQAPGKGLEWVAQIKAKSNNYATYYAESVKGRFTISRDDSKNSLYLQMNSLKTEDTAVYYCRYVHYGAYYGVRAWGQGTTVTVSSASTKGPSVFPLAPSSKSTSGGTAALGCLVKDYFPEPVTVSWNSGALTSGVHTFPAVLQSSGLYSLSSVVTVPSSSLGTQTYICNVNHKPSNTKVDKKVEPKSCDKTHTCPPCPAPEAAGGPSVFLFPPKPKDTLMISRTPEVTCVVVDVSHEDPEVKFNWYVDGVEVHNAKTKPREEQYASTYRVVSVLTVLHQDWLNGKEYKCKVSNKALPAPIEKTISKAKGQPREPQVYTLPPSRCELTKNQVSLSCAVKGFYPSDIAVEWESNGQPENNYKTTPPVLDSDGSFFLVSKLTVDKSRWQQGNVFSCSVMHEALHNHYTQKSLSLSPDYKDDDDK
# chain: B1 chain
# light: B1 light
# B10: 154R3A01#1 one-arm antibody (antibody, human IgG1, kappa, L234A L235A, N297A)
# heavy: B2 heavy with L70F
# chain: B1 chain
# light: B1 light
# B11: CE115HA000 D101K one-arm antibody (antibody, human IgG1, kappa, L234A L235A, N297A, name in Kabat numbering)
# heavy: B9 heavy with R110K
# chain: B1 chain
# light: B1 light
# B12: CE115HA000 A52aE one-arm antibody (antibody, human IgG1, kappa, L234A L235A, N297A, name in Kabat numbering)
# heavy: B9 heavy with A53E, R110D
# chain: B1 chain
# light: B1 light
# B13: CE115HA000 K52E one-arm antibody (antibody, human IgG1, kappa, L234A L235A, N297A, name in Kabat numbering)
# heavy: B9 heavy with K52E, R110D
# chain: B1 chain
# light: B1 light
# B14: CE115HA000 G98K one-arm antibody (antibody, human IgG1, kappa, L234A L235A, N297A, name in Kabat numbering)
# heavy: B9 heavy with G104K, R110D
# chain: B1 chain
# light: B1 light
# B15: 154R4F08#1 one-arm antibody (antibody, human IgG1, kappa, L234A L235A, N297A)
# heavy: B1 heavy with R16H
# chain: B1 chain
# light: B1 light
# notes: As m48
# How the values were obtained:
# human CD154 = target: T1, human CD154; experiment: ECL competition, CD3ε[+]: CD3ε homodimer added as competitor [1]
# Method: Next, each obtained IgG was evaluated for its binding to CD3 and human CD154 at the same time by the competition method (electrochemiluminescence method (ECL method)).
# A TBST solution containing 0.5% BSA (referred to as a blocking solution; the TBST solution was TBS (manufactured by Takara Bio Inc.) supplemented with 0.1% Tween 20) was added at 150 μL/well to streptavidin plate (MSD K.K.), and the plate was incubated at room temperature for 1 hour or longer. After removal of the blocking solution, each well was washed three times with 250 μL of a TBST solution. The antibody-antigen complex solution was added thereto at 50 μL/well, and the plate was incubated at room temperature for 1 hour so that the biotinylated antigen-antibody-detection sulfo-tag antibody complex solution bound via the biotinylated antigen to the streptavidin plate. After removal of the antibody-antigen complex solution, each well was washed three times with a TBST solution, and a solution of 4×READ buffer (MSD K.K.) diluted 2-fold with water was added thereto at 150 μL/well, followed by the detection of the luminescence signal of the sulfo-tag using Sector Imager 2400 (MSD K.K.).
# CD3ε homodimer protein = CD3ε homodimer protein (human, UniProt P07766 23-126, limits assumed); experiment: SPR Biacore T200, CD3e homodimer on chip
# Chain of CD3ε homodimer protein (P07766 23-126 limits assumed): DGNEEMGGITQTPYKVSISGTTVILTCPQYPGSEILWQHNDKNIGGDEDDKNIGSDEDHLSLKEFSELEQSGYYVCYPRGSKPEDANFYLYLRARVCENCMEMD
# Method: An appropriate amount of CD3ε homodimer protein was immobilized onto Sensor chip CM4 (GE Healthcare Japan Corp.) by the amine coupling method. Then, the antibody having an appropriate concentration was injected thereto as an analyte and allowed to interact with the CD3ε homodimer protein on the sensor chip. Then, the sensor chip was regenerated by the injection of 10 mmol/L glycine-HCl (pH 1.5). The assay was conducted at 25° C., and HBS-EP+ (GE Healthcare Japan Corp.) was used as a running buffer. […] Each parameter was calculated using Biacore T200 Evaluation Software (GE Healthcare Japan Corp.).
Binder,relative ECL reaction (to no antigen coating) (human CD154),KD ratio (KD of CE115HA000/KD of altered form) (CD3ε homodimer protein)
B1,1,
B2,4,
B3,18,
B4,20,
B5,4,
B6,19,
B7,16,
B8,18,
B9,,5.55
B10,21,
B11,,4.32
B12,,0.88
B13,,18.4
B14,,1.85
B15,1,
